Measured values reported in the supplement of paper PMC7877785.
± gives the uncertainty stated by the source.

Experiment: self-splicing fitness, log relative to wild type (ln ratio); higher = more splicing; Tetrahymena group I intron in knt gene, E. coli kanamycin selection, DiMSum; sequences stand for … in CUCUCU…GGAGGGAAAAGUUAUCAGGCAUGCACCUGGUAGCUAGUCUUUAAACCAAUAGAUUGCAUCGGUUUAAAAGGCAAGACCGUCAAAUUGCGGGAAAGGGGUCAACAGCCGUUCAGUACCAAGUCUCAGGGGAAACUUUGAGAUGGCCUUGCAAAGGGUAUGGUAAUAAGCUGACGGACAUGGUCCUAACCACGCAGCCAAGUCCUAAGUCAACAGAUCUUCUGUUGAUAUGGAUGCAGUUCACAGACUAAAUGUCGGUCGGGGAAGAUGUAUUCUUCUCAUAAGAUAUAGUCGGACCUCUCCUUAAUGGGAGCUAGCGGAUGAAGUGAUGCAACACUGGAGCCGCUGGGAACUAAUUUGUAUGCGAAAGUAUAUUGAUUAGUUUUGGAGUACUCGUGGUCG
Procedure, shortened: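 DiMSum derived fitness as the error-weighted combination of fold changes across replicates, kanamycin versus no kanamycin, normalised to wild type. E. coli BL21(DE3) held the library, which randomised all eight P1ex-region intron nucleotides within the knt kanamycin-resistance gene on pET-22b(+). Six replicate transformations grew overnight at 37°C or 30°C on LB agar with or without 25 μg/mL kanamycin, also containing 100 μg/mL carbenicillin, 50 μM IPTG and 0.2% rhamnose, and pooled colonies were amplicon-sequenced on an Illumina HiSeq 2500.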

Sequence	self-splicing fitness (ln) (30 °C)	self-splicing fitness (ln) (37 °C)
ACACAGCAAUAUUACGGCUC	-0.896 ± 0.067	-0.461 ± 0.088
AGCUAGCAAUAUUACGGCUC	-3.32 ± 0.37	-3.06 ± 0.43
CUGAAGCAAUAUUACGGGAA	-2.05 ± 0.18	
CAUAAGCAAUAUUACGUAAA	-3.55 ± 0.25	-2.11 ± 0.17
ACAAAGCAAUAUUACGUUGU	-3.68 ± 0.14	-2.18 ± 0.15
UUUCAGCAAUAUUACGGUGA	-0.66 ± 0.056	-0.395 ± 0.064
UGCCAGCAAUAUUACGCCAA	-1.24 ± 0.15	-1.8 ± 0.21
UGAGAGCAAUAUUACGCUAA	-2.28 ± 0.31	-2.53 ± 0.31
GUCUAGCAAUAUUACGCACU	-0.628 ± 0.047	0.389 ± 0.063
GAAUAGCAAUAUUACGGUUC	-3.69 ± 0.17	-3.25 ± 0.33
CAGCAGCAAUAUUACGGUGU	-3.61 ± 0.15	-2.72 ± 0.17
CGUUAGCAAUAUUACGGGAC	-2.68 ± 0.34	-3.7 ± 0.39
GCAAAGCAAUAUUACGGGUA	-1.55 ± 0.11	-0.7 ± 0.097
AAGUAGCAAUAUUACGCCCG	-1.26 ± 0.23	-0.559 ± 0.22
CACCAGCAAUAUUACGAGCA	-3.54 ± 0.16	-1.55 ± 0.13
UGAAAGCAAUAUUACGUCAA	-0.68 ± 0.12	-1.31 ± 0.12
CCGCAGCAAUAUUACGAGGA	-3.51 ± 0.19	-1.79 ± 0.13
UUCGAGCAAUAUUACGGGAU	-3.04 ± 0.25	-2.05 ± 0.19
UUUCAGCAAUAUUACGUGGG	-2.4 ± 0.14	-1.95 ± 0.12

Sequence	self-splicing fitness (ln) (30 °C)	self-splicing fitness (ln) (37 °C)
UGUCAGCAAUAUUACGUUCG	0.194 ± 0.073	0.709 ± 0.1
UCCCAGCAAUAUUACGCGCC	-3.11 ± 0.35	-1.29 ± 0.21
AGUAAGCAAUAUUACGGAUU	-1.92 ± 0.13	-0.84 ± 0.16
CUGAAGCAAUAUUACGGUGG	-1.02 ± 0.065	-0.466 ± 0.094
CUGAAGCAAUAUUACGAAAA	-4.17 ± 0.25	-2.59 ± 0.22
CGCGAGCAAUAUUACGCCUG	-2.95 ± 0.34	-1.99 ± 0.26
UCGUAGCAAUAUUACGGGAG	-2.85 ± 0.2	-3.28 ± 0.25
UCCUAGCAAUAUUACGUAGC	-3.05 ± 0.14	-2.23 ± 0.16
GUUGAGCAAUAUUACGAAGG	-3.35 ± 0.41	-2.68 ± 0.4
UCAGAGCAAUAUUACGUUAC	-3.21 ± 0.37	-1.55 ± 0.29
ACCAAGCAAUAUUACGCGGU	-3.54 ± 0.12	-2.84 ± 0.16
UGUUAGCAAUAUUACGUCUC	-4.05 ± 0.42	-2.07 ± 0.31
GGCAAGCAAUAUUACGCUCA	-1.21 ± 0.13	0.321 ± 0.17
GUUCAGCAAUAUUACGCUUG	-1.54 ± 0.081	-0.171 ± 0.089
UGUGAGCAAUAUUACGUAAA	-2.31 ± 0.15	-1.31 ± 0.21
AUACAGCAAUAUUACGGAGU	-1.72 ± 0.085	-1.72 ± 0.11
AAGAAGCAAUAUUACGGUGG	-2.93 ± 0.13	-1.98 ± 0.13
CCGCAGCAAUAUUACGUGCA	-3.71 ± 0.33	-1.54 ± 0.14
